Experimental data as given in patent publication US20210123065.

System: Che9c RecT annealase (Mycobacteriophage Che9c)
Assay: cell_activity
Settings: oligo recombineering, about 1 ug oligo, M. smegmatis

With “180-mer hyg oligo carrying 60 base insertion” as the substance, how does the activity (recombinants per survivor) read?
Its activity (recombinants per survivor) is 2e-06.
